Experiments:
Experiment in all cases: ELISA
FN2 = molecular target: FN2
Protocol: (§1) For the anti-human EphA4 monoclonal antibodies produced in Example 1, evaluation of binding activity to various EphA4 was performed according to the following steps. Mouse anti-6-His antibodies (R&D) were coated on the wells of a 96-well plate (Thermo […]). After incubating at room temperature for 1 hour, the wells were blocked at room temperature for 1 hour with 1% Block Ace (KAC). After washing three times with 0.02% Tween 20/PBS, the wells were seeded with human EphA4 extracellular domain-MBP-His protein, human EphA4 ligand binding domain-MBP-His protein, human EphA4 fibronectin III-type domain 1-MBP-His protein, human EphA4 fibronectin III-type domain 2-MBP-His protein, or MBP-His protein (final concentration 1 nM), and this was incubated at room temperature for 1 hour. After washing three times, anti-human EphA4 rabbit monoclonal antibody (10 pg/mL) was added, and this was incubated at room temperature for 1 hour. After washing three times, horseradish peroxidase labeled goat anti-rabbit IgG polyclonal antibody (abcam) was added, and this was incubated at room temperature for 1 hour. After washing three times, TMBZ (3,3′,5,5′-tetramethylbenzidine, KPL) solution was added to the wells, and this was incubated for four and a half minutes at room temperature. Equal amounts of quenching solution (2 N H₂SO₄, FUJIFILM Wako) were added to the wells, and absorbance at 450 nm and 650 nm were read with a microplate reader (Thermo […]).

MBP = molecular target: MBP
Protocol: as §1

[1] = molecular target: human EphA4 ligand binding domain-MBP-His protein (human, UniProt P54764 20-209; P0AEX9 29-392 = MBP)
Protocol: as §1

FN1 = molecular target: FN1
Protocol: as §1

[2] = molecular target: T1, human EphA4 extracellular domain-MBP-His protein (human)
T1 construct: also called human EphA4 extracellular domain (ECD); Human EphA4 extracellular domain-MBP-His 10
Protocol: as §1

Rabbit = molecular target: T2, Rabbit
T2 construct: also called rabbit EphA4 extracellular domain-SEAP-His protein
Protocol: (§2) For the anti-human EphA4 monoclonal antibodies produced in Example 1, evaluation of binding activity to various EphA4 was performed according to the following steps. Mouse anti-6-His antibodies (R&D) were coated on the wells of a 96-well plate (Thermo […]). After incubating at room temperature for 1 hour, the wells were blocked at 4° C. overnight with 1% Block Ace (KAC). After washing three times with 0.02% Tween 20/PBS, the wells were seeded with mouse EphA4 extracellular domain-SEAP-His protein, rat EphA4 extracellular domain-SEAP-His protein, rabbit EphA4 extracellular domain-SEAP-His protein, monkey EphA4 extracellular domain-SEAP-His protein, human EphA4 extracellular domain-SEAP-His protein, or SEAP-His protein (final concentration 1 nM), and this was incubated at room temperature for 1 hour. After washing three times, anti-human EphA4 rabbit monoclonal antibody (10 pg/mL) was added, and this was incubated at room temperature for about 1 hour. After washing three times, horseradish peroxidase labeled goat anti-rabbit IgG polyclonal antibody (abcam) was added, and this was incubated at room temperature for 1 hour. After washing three times, TMBZ (3,3′,5,5′-tetramethylbenzidine, KPL) solution was added to the wells, and this was incubated for 3 minutes at room temperature. Equal amounts of quenching solution (2 N H₂SO₄, FUJIFILM Wako) were added to the wells, and absorbance at 450 nm and 650 nm were read with a microplate reader (Thermo […]).

Mouse = molecular target: T3, Mouse
T3 construct: also called mouse EphA4 extracellular domain-SEAP-His protein
Protocol: as §2

[3] = molecular target: human EphA4 extracellular domain-SEAP-His protein (human)
Protocol: as §2

Rat = molecular target: T4, Rat
T4 construct: also called rat EphA4 extracellular domain-SEAP-His protein
Protocol: as §2

[4] = molecular target: T5, monkey EphA4 extracellular domain-SEAP-His protein (monkey)
T5 construct: the fusion as a whole has none; not shown: SEAP-His part
Protocol: as §2

SEAP = molecular target: T6, SEAP
T6 construct: negative control antigen; also called SEAP-His protein
Protocol: as §2

human EphA4 extracellular domain-SEAP-His protein (human), sequence (chain, as listed by the source limits assumed): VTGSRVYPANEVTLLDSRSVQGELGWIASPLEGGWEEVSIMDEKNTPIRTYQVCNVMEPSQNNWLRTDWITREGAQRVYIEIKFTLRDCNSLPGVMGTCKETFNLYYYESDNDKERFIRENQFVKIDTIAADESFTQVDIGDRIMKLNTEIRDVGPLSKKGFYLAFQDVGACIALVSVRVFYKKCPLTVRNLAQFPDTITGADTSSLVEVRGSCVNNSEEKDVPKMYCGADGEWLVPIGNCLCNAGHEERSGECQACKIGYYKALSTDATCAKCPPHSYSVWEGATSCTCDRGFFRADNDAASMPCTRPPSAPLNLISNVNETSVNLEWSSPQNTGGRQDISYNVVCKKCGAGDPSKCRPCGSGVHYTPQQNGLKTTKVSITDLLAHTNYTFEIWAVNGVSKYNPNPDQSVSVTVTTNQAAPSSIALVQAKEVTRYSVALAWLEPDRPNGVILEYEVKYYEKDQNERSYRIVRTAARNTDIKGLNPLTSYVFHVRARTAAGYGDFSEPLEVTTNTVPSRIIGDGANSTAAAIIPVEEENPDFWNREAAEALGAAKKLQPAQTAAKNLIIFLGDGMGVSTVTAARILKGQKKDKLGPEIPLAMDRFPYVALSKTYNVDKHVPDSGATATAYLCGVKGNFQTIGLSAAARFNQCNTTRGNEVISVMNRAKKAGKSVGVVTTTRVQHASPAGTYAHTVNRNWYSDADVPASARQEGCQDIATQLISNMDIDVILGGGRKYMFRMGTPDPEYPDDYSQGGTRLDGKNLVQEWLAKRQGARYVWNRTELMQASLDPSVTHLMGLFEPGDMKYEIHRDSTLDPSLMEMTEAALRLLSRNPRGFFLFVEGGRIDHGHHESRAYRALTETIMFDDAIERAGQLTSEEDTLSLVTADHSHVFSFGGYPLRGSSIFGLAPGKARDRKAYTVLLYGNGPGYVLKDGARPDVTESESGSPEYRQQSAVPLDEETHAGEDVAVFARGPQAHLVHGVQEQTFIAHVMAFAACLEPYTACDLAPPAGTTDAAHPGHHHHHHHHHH
T5 sequence (chain, as listed by the source): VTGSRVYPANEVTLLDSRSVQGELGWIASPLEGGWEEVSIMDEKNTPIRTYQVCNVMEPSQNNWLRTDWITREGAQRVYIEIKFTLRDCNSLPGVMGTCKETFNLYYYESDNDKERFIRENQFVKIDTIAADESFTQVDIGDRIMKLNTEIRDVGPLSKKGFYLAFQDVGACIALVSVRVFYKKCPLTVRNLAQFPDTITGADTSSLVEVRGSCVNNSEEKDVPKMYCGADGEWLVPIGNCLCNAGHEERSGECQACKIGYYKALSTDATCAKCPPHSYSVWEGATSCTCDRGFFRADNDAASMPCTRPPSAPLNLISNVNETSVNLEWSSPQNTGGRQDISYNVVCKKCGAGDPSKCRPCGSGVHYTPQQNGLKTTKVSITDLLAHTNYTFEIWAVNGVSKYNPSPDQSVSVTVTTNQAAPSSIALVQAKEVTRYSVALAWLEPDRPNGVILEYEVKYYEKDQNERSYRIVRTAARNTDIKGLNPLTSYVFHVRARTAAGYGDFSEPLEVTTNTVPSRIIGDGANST

Binder	absorbance (FN2)	absorbance (MBP)	absorbance [1]	absorbance (FN1)	absorbance [2]	absorbance (Rabbit)	absorbance (Mouse)	absorbance [3]	absorbance (Rat)	absorbance [4]	absorbance (SEAP)
KPEP11_20 (antibody, V domains shown, Rabbit IgG; also called anti-human EphA4 rabbit monoclonal antibody KPEP11_20) VH: QSLEESGGRLVTPGTPLTLTCTVSGFSLNNYYMNWVRQAPGKGLEWIGIIYPDIDTTDYASWVKGRFTISKTSTTVDLKITSPTTEDTATYFCARSDIDYYTTRLDLWGQGTLVTISS VL: AQVLTQTPSPVSAAVGGTVSINCQSSPSVYNNNWLSWFQQKPGQPPKLLIYGASTLASGVPSRFKGSGSGTQFTLTISDVQCDDAATYYCAGGYDSNSDTAFGGGTELEILG	0.238	0.274	1.42	0.207	1.26	0.046	0.052	1.16	0.062	1.15	0.067
KPEP11_12 (antibody, V domains shown, Rabbit IgG; also called anti-human EphA4 rabbit monoclonal antibody KPEP11_12) VH: QSLEESGGRLVTPGTPLTLTCTVSGFSLSSYHMSWVRQAPGKGLEWIGIIYRSGNTYYANWAKGRFTISKTSTTVDLKITSPTTEDTATYFCARESSTFYGMDLWGPGTLVTVSS VL: YVMMTQTPSSVSAAVGGTVTINCQASQSVYGNNELAWYQQKPGQRPKLLIYRASTLASGVPSRFKGSGSGTEFTLTISDLECADAATYYCLGYKSDDYTFGGGTKVEIKG		0.302	0.283	0.255	1.29	0.055	0.059	1.22	0.054	1.19	0.067
KPEP11_13 (antibody, V domains shown, Rabbit IgG; also called anti-human EphA4 rabbit monoclonal antibody KPEP11_13) VH: QSLEESGGRLVTPGTPLTLTCTVSGFSLSSYHMSWVRQAPGKGLEWIGIIYRSGNTYYANWAKGRFTISKTSTTVDLKITSPTTEDTATYFCARESSTFYGMDLWGPGTLVTVSS VL: YVMMTQTPSSVSAAVGGTVTINCQASQSVYGNNELAWYQQKPGQRPKLLIYRASTLASGVPSRFKGSGSGTEFTLTISDLECADAATYYCLGYKSDDYTFGGGTKVEIKG	0.36	0.402	0.348	0.318	1.31	0.083	0.082	1.18	0.086	1.17	0.099
KPEP11_01 (antibody, V domains shown, also called anti-human EphA4 rabbit monoclonal antibody KPEP11_01) VH: QSVEESGGRLVTPGTPLTLTCTVSGFSLSSYHMSWVRQAPGKGLEWIGIIYRSGNTYSANWAKGRFTISKTSTTVDLKITSPTTEDTATYFCARESSTFYGMDLWGPGTLVTVSS VL: YVMMTQTPSSVSAAVGGTVTINCQASQSVYGNNELAWYQQKPGQRPKLLIYRASTLASGVPSRFKGSGSGTEFTLTISDLECADAATYYCLGYKSDDYTFGGGTKVEIKG	0.235	0.231	0.236	0.228		0.045	0.049	1.21	0.042	1.18	0.052
KPEP11_09 (antibody, V domains shown, Rabbit IgG; also called anti-human EphA4 rabbit monoclonal antibody KPEP11_09) VH: QSVEESGGRLVTPGTPLTLTCTVSGFSLSSYHMSWVRQAPGKGLEWIGIIYRSGNTYSANWAKGRFTISKTSTTVDLKITSPTTEDTATYFCARESSTFYGMDLWGPGTLVTVSS VL: YVMMTQTPSSVSAAVGGTVTINCQASQSVYGNNELAWYQQKPGQRPKLLIYRASTLASGVPSRFKGSGSGTEFTLTISDLECADAATYYCLGYKSDDYTFGGGTKVEIKG	0.242	0.291		0.24	1.24		0.079	1.14	0.064	1.15	0.07
KPEP11_02 (antibody, V domains shown, Rabbit IgG; also called anti-human EphA4 rabbit monoclonal antibody KPEP11_02) VH: QSLEESGGRLVTPGGSLTLTCTVSGIDLSSYAMSWVRQAPEKGLEWIGFINNYGTYYASWAKGRFTISKTSTTVDLKVTSLTTEDTATYFCVRGGRSPNYDIVSGDIWGPGTLVTVSS VL: YVMMTQTPSSVSEPVGGTVTIKCQASQNIYNSLAWYQQKPGQRPKLLIADASELASGVPQRFSGSGSGTQFTLTISDLECADAATYYCQSSSAGDSYVGGFGGGTEVVVKG	0.227		1.32	0.213	1.35	0.04	0.048	1.25		1.2	0.071
KPEP11_07 (antibody, V domains shown, Rabbit IgG; also called anti-human EphA4 rabbit monoclonal antibody KPEP11_07) VH: QEQLKESGGRLVTPGGSLTLTCTVSGIDLSSYAMSWVRQAPEKGLEWIGFINMYGTYYASWAKGRFTISRTSTTVDLKVTSLTTEDTATYFCVRGGRSPDYDIVSGDIWGPGTLVTVSS VL: YVMMTQTPSSVSEPVGGTVTIKCQASQNIYNSLAWYQQKPGQRPKLLIADASELASGVPQRFSGSGSGTQFTLTISDLECADAATYYCQSSSAGDSYVGGFGGGTEVVVKG	0.22	0.24	1.39	0.226	1.42		0.045	1.22	0.044	1.18	0.05
KPEP11_05 (antibody, V domains shown, Rabbit IgG; also called anti-human EphA4 rabbit monoclonal antibody KPEP11_05) VH: QSLEESGGRLVTPGGSLTLTCTVSGIDLSSYAMSWVRQAPEKGLEWIGFINNYGTYYASWAKGRFTISKTSTTVDLKVTSLTTEDTATYFCVRGGRSPNYDIVSGDIWGPGTLVTVSS VL: YVMMTQTPSSVSEPVGGTVTIKCQASQNIYNSLAWYQQKPGQRPKLLIADASELASGVPQRFSGSGSGTQFTLTISDLECADAATYYCQSSSAGDSYVGGFGGGTEVVVKG	0.225	0.239	1.32	0.213	1.43	0.035	0.045		0.043	1.24	0.043

Reference: patent US20240385190A1 (EISAI R AND D MANAGEMENT, published 2024)
